# In the DeepSol protein solubility set:
# Assay: soluble on expression in E. coli; label from the status in PepcDB or PDB records
row,Sequence,soluble on expression in E. coli
1,MAHHHHHHMPLFCSSTTFMLKVRRAAVKTWKCFAFIAFVSSSMRYISCGFTADDNTKSKSCPFDALGISNNSDMTTVKAAYRSKCQTEHPDVGGTEEGFRRIRWAYESCCEKLVKTGPRSNSEFDGSSHESSSKQKDDEGDYTHSYYRYKSKDERYHEQRQMFYYLFSSVETRNDIDNLLSKALRSHCFDAIDVSEPLRLSLRNYHRVTGYGEHHLTSCFAAMEHWEEYTQRRADVTQYHIMLILYTDGPKPGLTAQLISEGVEAIMEQMCVKGIEYDDWSLTLAHKAYRVCPYPST,not soluble
2,DGPGDGFTILSSKSLVLGQKLSLTQSDISHIGSMRVEGIVHPTTAEIDLKEDIGKALEKAGGKEFLETVKELRKSQGPLEVAEAAVSQSSGLAAKFVIHCHIPQWGSDKCEEQLEETIKNCLSAAEDKKLKSVAFPPFPSGRNCFPKQTAAQVTLKAISAHFDDSSASSLKNVYFLLFDSESIGIYVQEMAKL,soluble
3,HNGDLYFSNVMLQDMQTDYSCNARFHFTHTIQQKNPFTLKVLTTRGVAERTPSFMYPQGTASSQMVLRGMDLLLECIASGVPTPDIAWYKKGGDLPSDKAKFENFNKALRITNVSEEDSGEYFCLASNKMGSIRHTISVRVKAAPYWLDEPKNLILAPGEDGRLVCRANGNPKPTVQWMVNGEPLQSAPPNPNREVAGDTIIFRDTQISSRAVYQCNTSNEHGYLLANAFVSVLDVPPRMLSPRNQLIRVILYNRTRLDCPFFGSPIPTLRWFKNGQGSNLDGGNYHVYENGSLEIKMIRKEDQGIYTCVATNILGKAENQVRLEVKDPTRIYRMPEDQVARRGTTVQLECRVKHDPSLKLTVSWLKDDEPLYIGNRMKKEDDSLTIFGVAERDQGSYTCVASTELDQDLAKAYLTVLGRPDRPRDLELTDLAERSVRLTWIPGDANNSPITDYVVQFEEDQFQPGVWHDHSKYPGSVNSAVLRLSPYVNYQFRVIAINEVGSSHPSLPSERYRTSGAPPESNPGDVKGEGTRKNNMEITWTPMNATSAFGPNLRYIVKWRRRETREAWNNVTVWGSRYVVGQTPVYVPYEIRVQAENDFGKGPEPESVIGYSGEDYPRAAPTEVKVRVMNSTAISLQWNRVYSDTVQGQLREYRAYYWRESSLLKNLWVSQKRQQASFPGDRLRGVVSRLFPYSNYKLEMVVVNGRGDGPRSETKEFTTPEGVPSAPRRFRVRQPNLETINLEWDHPEHPNGIMIGYTLKYVAFNGTKVGKQIVENFSPNQTKFTVQRTDPVSRYRFTLSARTQVGSGEAVTEESPAPPNEGRCMAAAPGVKGPS,soluble
4,QRKISNIGAQSSMKLEDIKTPSASLTTTLAGRLAGVVAVQRTGEPGKDAADIWIRGIATPNTATPLILVDGVERAFNDIDPEDIESLTTLKDASATAVYGVRGANGVIIIKTKPGK,not soluble
5,MASPRANDAPIVLLHGFTGWGREEMLGFKYWGGVRGDIEQWLNDNGYRTYTLAVGPLSSNWDRACEAYAQLVGGTVDYGAAHAAKHGHARFGRTYPGLLPELKRGGRVHIIAHSQGGQTARMLVSLLENGSQEEREYAKAHNVSLSPLFEGGHHFVLSVTTIATPHDGTTLVNMVDFTDRFFDLQKAVLKAAAVASNVPYTSQVYDFKLDQWGLRRQPGESFDHYFERLKRSPVWTSTDTARYDLSIPGAEKLNQWVQASPNTYYLSFSTERTHRGALTGNYYPELGMNAFSAVVCAPFLGSYRNEALGIDDRWLENDGIVNTVSMNGPKRGSSDRIVPYDGTLKKGVWNDMGTYNVDHLEVIGVDPNPSFDIRAFYLRLAEQLASLRP,soluble
6,MGSDKIHHHHHHMNDDIYDEMVRERGREYFLKNMVKYCVKRGNTLHGTVYGSDKYITKVDLKTKTGICTCPYQYNCKHAYALLESYKSGKYVDGDELFLNFSKLDKLEILKIFESIIEKHNLWDEFITEDKTLLDTAKNMLELTKIEKKNVFTFTSFLRNQFLKNAGNEELLLIIPDVIKYIQERKKLEEILFLIVDELFERGKTDKDTLKKLIELSRKYRELWMVKDNILDYEYFELLEY,not soluble
7,MGSDKIHHHHHHMKKSCKVSVHQLQIGNFVRLPVAWKDHPFLFSSFHIKQAAQIELIKNLGIAHVIVDLERSDVEPLSIDAVNPIKLPPAPEIHDLKNDMELYKAEQIEVQKKLRRDIHKTEQNFTRSVAMMRSMISKLRNRPLNAVDDAKDLVHSIVEQLLTSDNLVLHLMSDAKQDESIYYHSLNVAILSMLIAKEMEWSRSEIEAIGLSALFHDVGKLKIPPQILKKSTPWSAPELNFIKQHPLLGVELLKLAENFPPSALPAITNHHEFLDGTGYPKGLKEADLDQMSQLLAVVNEYDSLCYPNPQDKPMMPYAALGHLYKQYKTKLNQEYIGKIIKMLGIYPPGSVVELSSGQYAMVMSVNLQKLLCPKILVYDAQVPKDQAPIVDLELEGISIVRCLPPAALPEKVHEYLNPRERVSYYFGGDSRK,not soluble
8,MKVSELMTTDPITVSIDDTFSKVMSKMNETGIHQLPVMDGDRYAGMITYSDLLKKRSIQVKSKISNYTISTPTLNADDDVLEAVRLIKDTGLSALPVFQKGKLVGIISRTDIIKNLPQIVDVRDVRIFQIMSSDPIYVYEDDDIEEAFDSMRMLNEVEIPVASRDEKLSGIIRLNSILNILYRQKEKIKYGGYGEKEPVEIKCKSLMDPPVSVDRYAGIDEAVKLMMQYSLHIMPVTDSGKIVGIVDFSDLINMIKTESKEGILIEISGLDVYDEDLYDIAFELSERFLDKFSKMTDVSQGKLLIHVMKYKTQGSTKYSIRTRISAPPLFLVQNGSGWNFAEVLGEIFDRYEERIKKMKEKQ,not soluble
9,MASKMDTETHYSDVWVVIPAFNEAAVIGKVVTDVRSVFDHVVCVDDGSTDGTGDIARRSGAHLVRHPINLGQGAAIQTGIEYARKQPGAQVFATFDGDGQHRVKDVAAMVDRLGAGDVDVVIGTRFGRPVGKASASRPPLMKRIVLQTGARLSRRGRRLGLTDTNNGLRVFNKTVADGLNITMSGMSHATEFIMLIAENHWRVAEEPVEVLYTEYSKSKGQPLLNGVNIIFDGFLRGRMPR,not soluble
10,MRALSSLLLTLLLAGPAFAEPSAELQEPLAGWRYSGLLDRTEQDRVAYPTPPIDRGIQRNRTLIEGQLKAIGHLRQPHSLSVNGNPLNLYTDEQGRFARPYAFGAGSNSVEVRSSEGKPLKRVQFYEANLNKTPPRIRVVLGWDDPKAELDMHIITPDGQHAFFGHPGLTNGGGLDPDGVDGPGPEMFTMTAPLRGTYLIYVNYWGNFGSGGYNFDEGSNQNEVITSQINLILNENTVDEKRETFIVPMRAIGDLLLVKSFNYLEHHHHHH,soluble
11,MTGKLYGNKDNFRTQKVLIAAKLANKTVTLAGDAAPADKFPLGVTPAFEGDALLFGAESIGLHLTGTSANAETVQWLQFAEGYLLPAVLGYVLPSVSAANFDKKTVEQYKNELNGQLQVLDRVLVKKTYLVGERLSLADVSVALDLLPAFQYVLDANARKSIVNVTRWFRTVVNQPAVKEVLGEVSLASSVAQFNQAKFTELSAKVAKSAPKAEKPKKEAKPAAAAAQPEDDEPKEEKSKDPFQDMPKGTFVLDNFKRSYSNEDTATKAIPHFWENFDADNWSIWKCEYKYPEDLTLAFMSCNLINGMYQRLEKLKKNAFASMILFGTDNNSTISGIWVWKGDKLAFELSPDWQVDYESYTWTKLDAKSDATKKEVNEYLMWEGDFGGKKFNQGKIFK,soluble
12,MEQKNVRNFCIIAHVDHGKSTLADRLLEYTGAISEREKREQLLDTLDVERERGITVKMQAVRMFYKAKDGNTYKLHLIDTPGHVDFSYEVSRALAACEGALLLIDASQGIEAQTVANFWKAVEQDLVIIPVINKIDLPSADVDRVKKQIEEVLGLDPEEAILASAKEGIGIEEILEAIVNRIPPPKGDPQKPLKALIFDSYYDPYRGAVAFVRIFDGEVKPGDKIMLMSTGKEYEVTEVGAQTPKMTKFDKLSAGDVGYIAASIKDVRDIRIGDTITHAKNPTKEPVPGFQPAKPMVYAGIYPAEDTTYEELRDALEKYAINDAAIVYEPESSPALGMGFRVGFLGLLHMEIVQERLEREYGVKIITTAPNVIYRVKKKFTDEVIEVRNPMDFPDNAGLIEYVEEPFVLVTIITPKEYVGPIIQLCQEKRGIQKNMTYLDPNTVYLEYEMPLSEIIVDFHDKIKSISRGFASYDYEFIGYRPSDLIKLTVLINKKPVDALSFIVHADRAQKFARRVAEKLRETIPRQLFEVHIQVAKGGKVIASERIKPLRANVTAKCYGGDVTRKKKLLENQKEGKKRMKQFGKVQLPQEAFLSVLKVE,soluble
13,MSSFLRPAVSGQDPFTTGNYRAISSHLAITPPVSVVIPAMNEAENLPYVFKSLPDWIHEVVLVDGNSTDGTVEVARELWPDVKVVEQRGKGKGDALITGFEACTGDIIVMVDADGSADGQEIVSYVSALVSGADFAKGSRFANGGGTSDMTPIRKLGNRVLCAAVNAKFGARYTDLCYGYNAFWRHCLDQIDLDCTGFEVETLMNIRVVKAGLKVQEIPSHEYLRIHGASNLRAVRDGLRVLKVILKERSNRRALRSRPHAMQLNSGQGEVSLEHHHHHH,soluble
14,MSRESTVREWRTRVPRYRLLGGRCSDCGRSFYPPAKACPYCGSRNVAETELPRVGRLEAYTVLYSVESGARDRSPVVIGLVDLGVAKVVSEIVDVSDPESLERGVQVEAVFRRIYEDGDEGVIVYGVKFRPKA,not soluble
15,MALDRLREALGEALFGQEEVIEALLAVLLARGHALLEGMPGLGKTLLAESLARASGLAYKRIQFTPDLLPQDLTGSEVYREGRFVFVPGPIFAQVVLADEINRAPPKVQSALLEAMQERAVTAGGVRHPLPEPFFVIATQNPLELEGTYPLPEAQLDRFTAKIPFRPPRREVWLRILTEEPKAPEPVEVDLLKAQEEAKEVRVAKEALEAITHVAFLTQEDQRLRMGLSPRGAKAWLSLARALAYLRGKPFVDWKELKDAAFLALPHRLFLTEEALYAGESAEGVLKEALRKGGIPLEHHHHHH,soluble
16,SQLPPGKPEIFKCRSPNKETFTCWWRPGTDGGLPTNYSLTYHREGETLMHECPDYITGGPNSCHFGKQYTSMWRTYIMMVNATNQMGSSFSDELYVDVTYIVQPDPPLELAVEVKQPEDRKPYLWIKWSPPTLIDLKTGWFTLLYEIRLKPEKAAEWEIHFAGQQTEFKILSLHPGQKYLVQVRCKPDHGYWSAWSPATFIQIPSDFTMND,soluble
17,MKISTKGRYGLTIMIELAKKYGDRPISLRSIAKANNLSEHYLEQLVTPLRNAGLVKSIRGAYGGYVLAEHPAKITAGDILRVLEGPLTPVEELEEEEPAKRELWIRIRDAVEEVLDSTTLEDLAKYSDGDEGAYMFYI,not soluble
18,MGSSHHHHHHGGTGENLYFQGGSGAGIDYSKWDKLCDSGTSSGTEYEGDRDDKGHDDSSRAPQVTRLEYPSRVTLGPNGVQLEQVPPKASASPFPGTCAPPEETDNGSVAVARCPIKEESFHAEYDTGASNASSHATGNTAGRRDDDQERMGATDDDEDLLYESLARNGGREGSHHWWTQTEDTVTVSFLVPWETKGKSVTEFRLYEARSTTALESELLQAHLEITILVRPACLTSPSSGPSASAAPLRIHQVFRYPVKLSEDLIDGCWQLHFMPRRHLRLLVVQLFKEPVGLGMTLWWDRCFVTDTTSVIADTQTIPDRKRRMEATPGSKEKAGQFRKVWADAHEEFRRRAQERKRKIIE,not soluble
19,MMAYKSLLTVLTDPKIAPATLAQLVALAEAQDAHAEALCLGVDRSQTGYYYAGANALILQETLNRANAEAEEVLTLAQDTLGKSGVRWSAESGVAQIADLGRHVAHRARFSDLVVLSRPYGEDRGSEAEPIVEAAMFEGHAPVLVVPDNAPPLKQPRTVLLGWNESVEAMRAIRLAMPFLRAADLVRIVVIDPPRHGPDRSDPGGLLSQMLARHGVKVEIDVLSKTMTRVSDILNRHATDTSADMLVMGAYGHSRFREAILGGATRNMLEQATVPVFMAH,not soluble
